# Experiment: yeast display, Sf9 membrane polyspecificity reagent, FACS + sequencing; frameworks hold sequencing errors
# Procedure, shortened: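 Genes from sorted yeast were amplified by colony PCR, read by MiSeq 2 × 250 sequencing and filtered on CDR length. These cells carried a synthetic nanobody library in Saccharomyces cerevisiae BJ5465 and were sorted by FACS into low and high (top ~1%) gates on anti-HA and streptavidin fluorescence. Polyreactivity is labelled according to the gate of origin.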
row,Sequence,polyreactivity (PSR sort gate)
1,QVQLVESGGRLVQAGGSLRLSCAASGSIFALYAMGWYRQQPGKVRELVAAIRRGTSTKYADSVKGRFTISRDNAKNTVNLHMKSLKPEDTAVYYCNARYYYCSSISRWSDYWVQGTQVTVSS,high polyreactivity
2,QVQLVESGGGLVQAGGSLRLSCAASGITLTRYAMGWYRQAPGKDRELVAAISTGGGSTYYADSVKGRFTISRDNAKNTVYLQMNSLKPEDTAVYYCAARIRFARGYPITRTYDYWGQGTQVTVSS,high polyreactivity
3,QVQLGESGGGLVQAGGSLRLSCAASGIIFGYYAMGWYRQAPGKERELVAAITWSGGSTYYADSVKGRFTISRDNAKYTVYLQMNSLKPEDTAVYYCAASAYVQPYDYWGQGTQVTVSS,high polyreactivity
4,QVQLVETGGGLVQAGGSLRLSCAASGSIFHYYAKGWYRQAPGKERELVAAISWSGVTTYYADSVKGRFTISRDNAKNTVYLQMNSLKPEDTAVYYCAADSWRYPYYYWGQGTQVNVSS,high polyreactivity
5,QVQLVESGGGLVQAGGSLRLSCAASGRIFSNNDMGWYRQAAGKERELVAAISKNGGRTYYADSVKGRFTISRDNAKNTVYLQMNSLKPEDTAVYYCAAPVKPVTGYYPYDYWGQGTQVTVSS,high polyreactivity
6,QVQLVESVGGLVQAGGSLRLSCAASGRIFTSYAMGWYRQAPGKERELVAAIRFNGDSTYYADSVKGSFTISRDNAKNTVYLQMNSLKPEDTAVYYCAASRYRGSFRYTEYYWGQGTQVTVSS,high polyreactivity
7,QVQLVESGGGLVQAGGSLRLSCAASGSIFRYYAMGGYIQAPGKERELVAAISGDSGRTYYADSVKGRFTISRDNAKNTVYFQMNSLNPDDTAVYYCNARVAYRYRTGYDYWGQGTQVTVSS,high polyreactivity
8,QVQLVESGGGLVQAGGSLRLSCAASGFTFILYTMGWYRQAPGKERELVAAITWRGGNTYYADSVKGRFTISRDNAKNTVYLQMNSLKPEDSAVYYCAAETYYASWEMDYWGQGTQVTVSS,high polyreactivity
9,QVQLVESGGGLVQAGGSLRLSCAASGIIIVYNVMGWYRQAPGKERELVAAITNGDSTNYADSVKGRFTISRDNAKNTVYLQMNSLKPEDTAVYYCNVEGGYPLKYDYWGQGTQVSVSS,low polyreactivity
10,QVQLVESGGGLVQAGGSLRLSCAASGSIFSVYDMGWYRQAPGKERELVAAISRSGGSTYYADSVKGRFTISRDNAKNTVYLQRNSLKPEDTAVYYCNAVRRTGGHGDYWGQGTQVTVSS,high polyreactivity
11,QVHLVDSGGGLVQAGGSLSLSCAYSGSIFLTNAMGWYRHAPGKERELVDAITGDGSTNYADSVKGRFTISRDNAKNTVYLKMNSLIPEDTAVYYCDKDRGWSQWVDYDYWGQGTQVTVSS,low polyreactivity
12,QVQLVESCGGLVQAGGSLRLSCAASGSIFVGNAMGWYRQAPGKERELVAAIDASGGNTYYADSVKGRFTISRDNAKNTVYLQMNSLKPEDTAVYYCNKYGYWWWGTRESDYWGQGTQVTVSS,high polyreactivity
13,QVQLVESGGGLVQAGGSLRLSCAASGRTFGRNVMGWYRQAPGKERELVAAISRSGGSTYYADSVKGRFTISRDNAKNTVYLQMNSLKPEDTAVYYCAAKYYRDRDWGQGTQVTVSS,high polyreactivity
14,QVQHVESGGGLVQAGGSLRLSCAASGSTLSRYVMGWDRQAPGKERELVASISWTGTRTYYADSVKGRFTISRDNAKNTVYLQMNSLKPEDTAVYYCNAVSRGGRLYDYWGQGTQVTVSS,high polyreactivity
15,QVQIVESRGGIVQAGGSLRLRCAASGSTFAGNAMGWYRQPPGKERELVAAITSSGGTTYYADSVKGRFTISRDNEKNTVYLQMNSLKPEDSAVYYCAAKSRRTRRSYYWGQGTQVNVSS,high polyreactivity
16,QVQLVESGGGLVQAGGSLRLSCAASGSIFEWYAMGWYRQAPGKERELVATITGSGGSTYYADSVKGRFTISRDNAKNTVYLQMNSLKPEDTAVYYCAAVPPPGGLDYWGQGTQVTVSS,high polyreactivity
17,QVQLVESGGGLVQAGGSLRLSCAASGIIFKEYAMGGYRPAPGKERELVAAISGRGGSTYYADSVKGRFSISRDNAKNTVYLQMSSLKPEDTAVYYCNAVASWQRYDYWGQGTQVTVSS,high polyreactivity
18,QVQHVESGGGLVQAGGSLRLSCASSGRIIGKYVMAWYRQAPGKERELVAGISWSAGSTYYADSVKGRFTISRDNAKNTVYLQMNSLKPEDTAVYYCAAGLEGVYDYWGQGTQVTVSS,low polyreactivity
19,QVQLVESGGGLVQAGGSLRLSCAASGLIFYYNAMGWYRPAPGKERELVAAISWSGGSTYYADSVKGRFTISRDNAKNTVYLQMNSLKPEDTAVYYCNADYHSVRRDYWGQGTQVTVSS,low polyreactivity
20,QVQLVESGGGLVQAGGSLRLSSAASGFTFQGYVMGWYRQAPGKERELVAAISWSGGSTYYADSVKGRFTISRDTAKNTVYLQMNSLKPEDTAVYYCAAVTRFYTKYYWGQGTQVTVSS,high polyreactivity
21,QVQLVESCGGLVQAGGSLRLSCAASGFIFDWYAMGWYRQAPGKVRELVAAITTDGGGTYYADSVKGRFTISRDNAKNNVYLQMNSLKPEDTAVYDCAADGVSTSPQYDYWGQGTQVTVSS,high polyreactivity
22,QVQLVESGGGLVQAGGSLRLSCAASGRTFDPYAMGWYRQAPGKDRELVAAISRSGGSTYYADSVKGRFTISRDNAKNTVYLQMNSLKPEDTAVYYCAADASRYYYEYDYWGQGTQVTVSS,high polyreactivity

row,Sequence,polyreactivity (PSR sort gate)
1,QVQLVESGGGLVQAGGSLRLSCAASGSILLYYVMGWYRQAPGKERELVAGISSSGRTYYADSVKGRFTISRDNAKNTVYLQMNSLKPEDTAVYYSAKKYWRGDVRVGYWGQGTQVTVSS,high polyreactivity
2,QVQLVESGGGLVQAGGSLSLSCAASGRTFDDNAMGWYRQAPGKERELVAAISSTGSTNYADSLKGRFTISRDNAKNTVYLQMNSLKPEDTAVYYCNTDGGHERAYYYWGQCTQVTVSS,low polyreactivity
3,QVQLVESGGGLVQAGGSLRLSCAASGRIFFKYAMGWYRQAPGKERELVAAISSSGGRTSYADSVKGRFTISRDNAKNTVYLQMNSLKPEDTAVYYCNVKPSARGSPLYDYWGQGTQVTVSS,high polyreactivity
4,QVQLVESGGGLDQAGGSLRLSCAASGSTFRFNAMGWYRQAPGKEREFVAAIRFTGGSSYYSDSVKGRFTISRDNAKNTVYLQMNSLKPDDTAVYYCNNADEYSTVEYDYWGQGTLVTVSS,low polyreactivity
5,QVQLVESGGGLVQAGGSLRLICAASGRIFLYYAMGWYRQAPGKERELVAAITRGGGTTYADSVKGRFTISRDNAKNTVYLQMNSLKPEDTAVYYCAKRYSYYPGFDYWGQGTQVTVSS,high polyreactivity
6,QVQLVESGGGLDQAGGSLRLSCAASGGTFSNYAMGWYRQATGKERELVAAISESGGSTYYADSVKGRFTISRDNAKNTVYLQMNSLKPEDTAVYYCAVGTRFYVPRRFDYWGQGSQVTVSS,high polyreactivity
7,QVQLVESGGGLVQAGGSLRLSCAASGSTFTQYVMGWYRQAPGKERELVAAISDSGSTYYADSVKGRFTISRDNAKNTVYLQMNSLKPEDTAVYYCNADDVDFYYGYGYLEYDYWGQGTQVTVSS,low polyreactivity
8,QVQLVESGGGLVQAGGSLRLSCAASGLIFAVYAMGWYRQAPGKERELVAGISASAASTYYADSVKGRFTISRDNAKNTVYLQMNSLKPEDTAVYYCAADFYWFWTYGTLWYGYEYWGQGTQVTVSS,high polyreactivity
9,QVQLVESGGGLVQAGGSLRLSCAASGRIIDRNAMGWYRQAPGKERELVAAISSSGSTNYADSVKGRFTISRDNAKNTVYLQMNSLKPEVTAVYYCAARWRSVLAAGTRPVSFDYWGQGTQVTVSS,low polyreactivity
10,QVQLVESGGGLVQAGGSLRLSCAASGRIINYNARGWYRQAPGKERELVAAISSSGGSTYYADSVKGRFTISRDNAKNTVYLQMNSLKPEDTAVYYCNALGTTEYWSRDDYWGQGTQVTVSS,low polyreactivity
11,QVQLVESGGGLVQAGGSLRLSCAASGLIFHRNAMGWYRQAPGTERELVAAITKTGGGTYYADSVKGRFTISRDNAKNTVYLQMNSLKPEDTAVYYCAADTQRTFYYWGQGTQVTVSS,low polyreactivity
12,QFQLAESGGGLVQAGGSLRLSCAASGFTFRDYAMGWSRQATGKERELVATISWRGGSTYYADSVKGRFTISRDNAKNTVYLQMNSLKPEDTAVYYCAKRPYQRSVPYGKYDYWGQGTQVTVSS,low polyreactivity
13,QVQLVESWGGLVQAGGSLRLSCAASGFTFDYNGMGWYRQAPWKERELVAGIRWSGGSTYYADSVKGRFTISRDNAKNTVSLQMNSLKPEDTAFYYCAADTLPAEYEYDYWGQGTQVTVSS,low polyreactivity
14,QVQLVESGGGLVQAGGSLRLSCAASGSTFKRYAMGLYRQAPGKERELVASIPSAASTYYADSVKGRFSISRDNAKNTVNLQMNSLKPEDTAVYYCAASAYSALYYWYDYWGQGTQVTVSS,high polyreactivity
15,QVQLVESGGGLVQAGGSLRLSCAASGTTFYRNAMGWYRQAPGKERELVAAISWTGGRTYYADSVKGRFTISRDNAKNTVYLQMNSLKPEDTAVYYCNKGDSASSLDYWGQGTQVTVSS,high polyreactivity
16,QVQLVESGGGLVQAGGSLRLSCAASGLIFNWNDMGWYRQAPGKERELVAAISGDGGITYYADSVKGRFTISRDNAKNTVYLQMNSLKPEDTAVYYCNAGFTWGDWYDYWGQGTQVTVSS,low polyreactivity
17,QVQLVESGGGLVQAGGSLRLSCAASGRIFHLYAMGWYRQAPGKERELVATITYDGGSTYYADSVKGRFTISRDNAKDTVYLQMNSLKPEDTAVYYCASPSPHVGLKWEYDYWGQGTQVTVSS,low polyreactivity
18,QVQLVESGGGLVQAGGSLRLSCAASGRTFYSYAMGWYRQAPGKERELVAGITWSGTSTYYADSVKGRFTISRDNAKNTVYLQMNSLKPEDTAVYYCAAATLYSRYDYWGQGSQVTVSS,low polyreactivity
19,QVQLVESGGGLVQAGGSLRLSCAASGSIFALNVMGWYRQAPGKEREFVAAISVRSGSTYYADSVKGRFTISRDNAKNTVYLQMNSLKPEDTAVYYCAARTSRFWRGGGLDYWGQGTQVTVSS,high polyreactivity
20,QVQLVESGGGLVQAGGSLRLSCAASASIFASNAMGLYRQAPGKERELVAAINSADSTNYADSVKGRFRISRDNAKNTVYLQMNRLKPEDPAVFYCARGLEERYDYWGLGTQVTVSS,low polyreactivity
21,QVQLVESGGGLVQAGGSLRLSCAASGSTFSRYSMGWYRQAPGKERELVAAITGRGGRTYYADSVKGRFTISRDNAKKTVYLQLNSLKPEDTAVYYCAAYYGPYRSLYYYWGQGNQVTVSS,high polyreactivity
